Experimental data taken from the DeepSol protein solubility set.

assay: soluble on expression in E. coli; label from the status in PepcDB or PDB records

Soluble on expression in E. coli, not soluble:
MSLIYFETERLIARDYLERDYLPFSQMNADEEVMKYFPARLTQVESNALLDRNQKELTSLGYGLFAIEVKSTNEFIGFTGLHEATFEAEFTPCIEIGWRLKRSAWNQGFATEAALGVLAFAKGITAINEIYSFTATCNKPSEKVMRKIHLTKIADFEHPALINGNPLKPHVLYKAEGHHHHHH, MVSPILANIALNGIESIHRSKAKGQIIEPSVRYADDMVIILKPKDNAIEILERISEFLRKRGMQVSQKKTKITAATDGFDFLGWHFKVQKNGKFKSTPSVDNFKAFRKKVKHIVNNSNYGSIVKAQKLSPIVRGWRNYHKFCKMDGSKHSLWFLNHRTYTVFTKESKHTRQSSEKLIKKAFPLVPNSENKHVMVQGIKSPYDGNLTCWSKRNSKLYDGHTSKALTKQNHKCASCGLKFIGEERVHLHHRDGNHDNWKPNNLEALHESCHDYRHMSKTERLEHHHHHH, MFSKVNNQKMLEDCFYIRKKVFVEEQGVPEESEIDEYESESIHLIGYDNGQPVATARIRPINETTVKIERVAVMKSHRGQGMGRMLMQAVESLAKDEGFYVATMNAQCHAIPFYESLNFKMRGNIFLEEGIEHIEMTKKLTSLN, MGIDPGTGSMDVLGFDDESNNVFLEESIPRDEVTRDPSLPLRIVEEASAKVGGLDAVVAPSGYGMPLKRASETAPGDICEATFIHSSDEVLGLRIVGLRRLMALFASSDLPAWFTPGVIHLPTVPAWRKVGRIDMGTADKLYTVAAALRTEVEYHGVEPEAARFIAVEAGMAYTAAVAVVGGKVVDGVGGTSGFHGFMGGGAMDGEAAYALAAVAPRFSKSLLFKGGAGWVAGVSSPVELEEKASEGGGLEALEMLGEGVVKSVATLLPSLRPEGGEVRVYVSGRLFSLGRLGSELRSRLRDFISSIGLTPRVLTIERLGSKTKEGASGAALVASGLAGGRYKWLVDHLELERSSGSIFDHLPVDEDLRRAVRLEFRSCSPLGEA, MQPEEGTGWLLELLSEVQLQQYFLRLRDDLNVTRLSHFEYVKNEDLEKIGMGRPGQRRLWEAVKRRKALCKRKSWMSKVFSGKRLEAEFPPHHSQSTFRKTSPAPGGPAGEGPLQSLTCLIGEKDLRLLEKLGDGSFGVVRRGEWDAPSGKTVSVAVKCLKPDVLSQPEAMDDFIREVNAMHSLDHRNLIRLYGVVLTPPMKMVTELAPLGSLLDRLRKHQGHFLLGTLSRYAVQVAEGMGYLESKRFIHRDLAARNLLLATRDLVKIGDFGLMRALPQNDDHYVMQEHRKVPFAWCAPESLKTRTFSHASDTWMFGVTLWEMFTYGQEPWIGLNGSQILHKIDKEGERLPRPEDCPQDIYNVMVQCWAHKPEDRPTFVALRDFLLEAQPTDMRALQDFEEPDKLHIQMNDVITVIEGRAENYWWRGQNTRTLCVGPFPRNVVTSVAGLSAQDISQPLQNSFIHTGHGDSDPRHCWGFPDRIDELYLGNPMDPPDLLSVELSTSRPPQHLGGVKKPTYDPVSEDQDPLSSDFKRLGLRKPGLPRGLWLAKPSARVPGTKASRGSGAEVTLIDFGEEPVVPALRPCPPSLAQLAMDACSLLDETPPQSPTRALPRPLHPTPVVDWDARPLPPPPAYDDVAQDEDDFEICSINSTLVGAGVPAGPSQGQTNYAFVPEQARPPPPLEDNLFLPPQGGGKPPSSAQTAEIFQALQQECMRQLQAPGSPAPSPSPGGDDKPQVPPRVPIPPRPTRPHVQLSPAPPGEEETSQWPGPASPPRVPPREPLSPQGSRTPSPLVPPGSSPLPPRLSSSPGKTMPTTQSFASDPKYATPQVIQAPGAGGPCILPIVRDGKKVSSTHYYLLPERPSYLERYQRFLREAQSPEEPTPLPVPLLLPPPSTPAPAAPTATVRPMPQAALDPKANFSTNNSNPGARPPPPRATARLPQRGCPGDGPEAGRPADKIQMAMVHGVTTEECQAALQCHGWSVQRAAQYLKVEQLFGLGLRPRGECHKVLEMFDWNLEQAGCHLLGSWGPAHHKR, MGSDKIHHHHHHMTITEKRKDFILNSWIKISDDCLKEYLSRELELTDKGQVKSTTTNIITAIVNPDYCVSHKILNGSVFFDTCSQTIRLIGSIKGESEVNLKAPRKWTDQLTNLLGVEIEMNFGIKYSKGRMEEAVIFIANKRRVNLPKLYMKSLKYDGEDYISKLLPKYLGVDDTALNRWIMEHMLIGMVNRVFYPGCKFDEIMVLTGEQGVGKTSFIEKLALLPDWYCSLNNIKGKDAVSNLVGKIVVELEEFVALKNAKTADEAKLFISTRTSTVRLSYERFSADVDRTCIMIATTNDMTFLGDFSGERRYLPVQVHKEKVGLPVMYDQEKFPQLKGVSREEYSKIVKKDFEGAVAQAVYLFENKLYSPVLPVELRKDLNQVIQMHKNENRHVQNFFEFMDWKDTKSDTPNRVCSGEFLSQYPQTNEKVFAELMANEMADKWELEPTDKSRKFKIDGRVRVSKKFYVRKNMPDFIEVTDDIEIPF, MAHHHHHHMSSSVQNHQQTLLQARTHVAARDTTAVAILGAKAGSNGSSQSFRPAAQCLEHTQSSFNQTDISQRPPFIASEAATVSLLRRMEVLDNGRAGSTSDNAAANVVPSHQSVQRQRVTAHTLNKTTLANNDVTGEAPKPPSMAESTLKAGAQRRRIVKSNRNAVASRGPSESLKKCGPAVNVNDDGHRNDSAMAMNVPTQITVAARGGARGRVFHSNPFVTRNGKRFSAQNARRGISTATLSPPHTAITVSDDYSADFSVHDAFDVLSPMTPANPTYQKTLQVQQQQQWHSGSWIYDLNAGANTDSFTDDGSPIEFVVEDFELDDTVLGGTKHNDFGGQASKGGPDRFSTAAASNPDRLRQQNHARWAASRGPTRGATLASGTTATQQAGGARHLTTKSTMGSDPAGPDSPSGVLKERARLAKGVKLHNGPPMIKIPPLALDVINANRKTGKASYKVSHPKPGVVVPDIESSSTECSDMPNNSSLQGNFEALGVKVSNSPLGGRGSIEGRGNDKRVGGVHNGSLLSGSAVDGHRAGAAGSSAYKGSLQNCGRHGMLSMPFDGTSNDSQVHEASPSRNAREGFRGNSGGFGMHGGPFGSVQRQRWLVEADKHSSGESRPPMTNARKKAKCCVVM, MLPEEHLMLRQAVILVGGLGTRLGERTKARPKPMLEIGGRPFLDTLIDELDRYQIFDEILLLAGHKAEIVETHYAGATRGRAKIVVSRETEPLGTGGALVHAAPLLDQHFLLLNGDSLFDFNLLDLIARAQGGRVHMALRDGVVGDRYGRVVLDGDIVRDFIAPGAGATGPVNAGIYVVDKSIIAEIAKLPASLEQDVFPGLVRSGELRGTAYRGYFIDIGIPDDFARADRELREKLQRPAVFFDRDGVLNHDSGYTFETHKLEWIEGAREAVKAVNDAGYFAFVITNQSGVARGYYEEHHVLALHRWMADQMALIGAHIDAFEYCPDHPDGTVARYCRISDRRKPAPGMITDLAQRFSVDMTRSMVVGDKDSDMAAAQAAGLAGHMFEGGNLEAFVKQRLKPADKGLEHHHHHH, MDNKLGLNKMNKTLIALAVSAAAVATGAYADGINQSGDKAGSTVYSAKGTSLEVGGRAEARLSLKDGKAQDNSRVRLNFLGKAEINDSLYGVGFYEGEFTTNDQGKNASNNSLDNRYTYAGIGGTYGEVTYGKNDGALGVITDFTDIMSYHGNTAAEKIAVADRVDNMLAYKGQFGDLGVKASYRFADRNAVDAMGNVVTETNAAKYSDNGEDGYSLSAIYTFGDTGFNVGAGYADQDDQNEYMLAASYRMENLYFAGLFTDGELAKDVDYTGYELAAGYKLGQAAFTATYNNAETAKETSADNFAIDATYYFKPNFRSYISYQFNLLDSDKVGKVASEDELAIGLRYDF, PPHVEYMRRLELADYEPASDSGHIRYYPKGRLVKTLLEQFITRKCIDYGAMEVETPIMYDRNHPTLRRYLERFPARQYIIKGDKREFFLRFAACFGQFLMLSSSTITYRNLPLKIYELTRYSFRKEQRGELVGLRRLRAFTMPDMHTVAKDMEQAKEEFFNQYRLSVEVLREIGLEPEDYEVAVRITKDFYEENREFVHSLVDILKKPILIEMWDHRFFYFVLKFEFNFVDALDKASALSTVQIDVENAERYGITFVDSDGKEKHPYILHCSVSGAVERVMYALLEKAK, MGSDKIHHHHHHMNTLTDVEWNAFALPANLADGHAYHDMHVAFMEIMKNLERIWSEADKITPPRMALDFKNSFSRLIKSPSLMPHTHYKICPSASNSIDLIAAFLHGKNIRTVLVEPTFDNLALLLQRRGVTVDSVSEDNLTHHLVDGNFDSIPAIKTAEAVFIVSPNNPTGYTLSLQEFKTLVAYCKRTEKLLVVDNSFRFFNRQGYDDYQVLLESGVNFIAFEDTGKTWPTQDLKASLIIYSDTVKVFFESLYNEIYLCVSNFVLHLFSHLFDATSAVGLKSVLWDVVDSNRALLRETLQGSVLRISETSKEGLK

Soluble on expression in E. coli, soluble:
MSLKKFSCGFEVTKEVIGGKWKGLVLYFLMNGPKRTSELKRIIPNITQKMLIQTLRELEASGLVSRKMYNQVPPKVEYSSTELGESLKPILQELCQWGGYYAEQEYAEGEYEIVQPEQLSEGGSHHHHHH, MSLIRPQLDDIQTAQAQEKNLLNEFREKQSKLRNLQQYQHQLEEMRASFNQQLTQLPKESEIPGLVEDINMTGVNSGLKFKNIRLENEVKQEFFIEQPISIEATGDYHAFGAFVSGIAALPRIVTLHDFVIEAKQSKEKTDIPEVDYAVKAKTYRYIGVDEQGNASAVQANTSTTTPAQGGTPEGHHHHHH, MTKITLSDLPLREELRGEHAYGAPQLNVDIRLNTNENPYPPSEALVADLVATVDKIATELNRYPERDAVELRDELAAYITKQTGVAVTRDNLWAANGSNEILQQLLQAFGGPGRTALGFQPSYSMHPILAKGTHTEFIAVSRGADFRIDMDVALEEIRAKQPDIVFVTTPNNPTGDVTSLDDVERIINVAPGIVIVDEAYAEFSPSPSATTLLEKYPTKLVVSRTMSKAFDFAGGRLGYFVANPAFIDAVMLVRLPYHLSALSQAAAIVALRHSADTLGTVEKLSVERVRVAARLEELGYAVVPSESNFVFFGDFSDQHAAWQAFLDRGVLIRDVGIAGHLRTTIGVPEENDAFLDAAAEIIKLNLSAWSHPQFEK, MSLKKSLTELISDLKGNENVVNWHEIEPREAKTRPMPESIDERIKAALSKRGIDELYTHQYSAFQYVQKGESIVTVTPTASGKTLCYNLPVLQSIAQDETNRALYLFPTKALAQDQKSELNEIIDEMGIDIKSFTYDGDTSPAIRQKVRKAGHIVITNPDMLHSAILPHHTKWVSLFENLKYIVIDELHTYRGVFGSHVANVIRRLKRICRFYGSDPVFICTSATIANPKELGEQLTGKPMRLVDDNGAPSGRKHFVFYNPPIVNKPLNIRRSATAEVNELAKEFLKNKVQTIVFARSRVRVEIILSHIQELVKKEIGTKSIRGYRGGYLPKERREIERGLREGDILGVVSTNALELGVDIGQLQVCVMTGYPGSVASAWQQAGRAGRRHGESLIIMVANSTPIDQYIVRHPEYFFNRSPESARINPENLIILVDHLKCAAYELPFRADEEFGAMEVSDILEYLQEEAVLHRNGERYHWASESFPASNISLRSASQENVVIVDQSDIANVRIIGEMDRFSAMTLLHDEAIYLHEGVQYQVEKLDWDHKKAYVRKVDVEYYTDANLAVQLKVLEIDKTKEKSRTSLHYGDVTVNALPTIFKKIKMTTFENIGSGPIHLPEEELHTSAAWLEIKTADEDIGEKTLEQLLLGISNVLQHIVPVYIMCDRNDVHVVSQIKAAHTGLPTIFLYDHYPGGIGLAEEVFKRFSDINEAAKQLITHCPCHDGCPSCIGTEIEGIKAKERILQLLDQMSEGHHHHHH, MHHHHHHGMASMTARPLSELVERGWAAALEPVADQVAHMGQFLRAEIAAGRRYLPAGSNVLRAFTFPFDNVRVLIVGQDPYPTPGHAVGLSFSVAPDVRPWPRSLANIFDEYTADLGYPLPSNGDLTPWAQRGVLLLNRVLTVRPSNPASHRGKGWEAVTECAIRALAARAAPLVAILWGRDASTLKPMLAAGNCVAIESPHPSPLSASRGFFGSRPFSRANELLVGMGAEPIDWRLP
